Data taken from the supplement of paper PMC11246515.
± gives the standard deviation of the averaged measurements.

Test: total protein half-life in vivo (active degradation + dilution); higher = more stable protein
[1] = E. coli NCM3722 delta-clpP delta-lon delta-hslV, growth: N-lim chemostat, doubling time 6 h
[2] = E. coli NCM3722 delta-hslV, growth: N-lim chemostat, doubling time 6 h
[3] = E. coli NCM3722 delta-lon, growth: N-lim chemostat, doubling time 6 h
[4] = E. coli NCM3722 delta-smpB, growth: N-lim chemostat, doubling time 6 h
[5] = wild type E. coli NCM3722, growth: C-lim chemostat, doubling time 3 h
[6] = wild type E. coli NCM3722, growth: C-lim chemostat, doubling time 6 h
[7] = wild type E. coli NCM3722, growth: C-lim chemostat, doubling time 12 h
[8] = wild type E. coli NCM3722, growth: N-lim chemostat, doubling time 6 h
[9] = wild type E. coli NCM3722, growth: N-lim chemostat, doubling time 12 h
[10] = wild type E. coli NCM3722, growth: P-lim chemostat, doubling time 6 h
[11] = wild type E. coli NCM3722, growth: P-lim chemostat, doubling time 12 h
[12] = E. coli NCM3722 delta-clpP, growth: N-lim chemostat, doubling time 6 h

| Sequence | total protein half-life in vivo [1] [h] | total protein half-life in vivo [2] [h] | total protein half-life in vivo [3] [h] | total protein half-life in vivo [4] [h] | total protein half-life in vivo [5] [h] | total protein half-life in vivo [6] [h] | total protein half-life in vivo [7] [h] | total protein half-life in vivo [8] [h] | total protein half-life in vivo [9] [h] | total protein half-life in vivo [10] [h] | total protein half-life in vivo [11] [h] | total protein half-life in vivo [12] [h] |
| --- | --- | --- | --- | --- | --- | --- | --- | --- | --- | --- | --- | --- |
| MRQKETTATTRFSLLPGSITRFFLLLIIVLLVTMGVMVQSAVNAWLKDKSYQIVDITHAIQKRVDNWRYVTWQIYDNIAATTSPSSGEGLQETRLKQDVYYLEKPRRKTEALIFGSHDNSTLEMTQRMSTYLDTLWGAENVPWSMYYLNGQDNSLVLISTLPLKDLTSGFKESTVSDIVDSRRAEMLQQANALDERESFSNMRRLAWQNGHYFTLRTTFNQPGHLATVVAFDLPINDLIPPGMPLDSFRLEPDATATGNNDNEKEGTDSVSIHFNSTKIEISSALNSTDMRLVWQVPYGTLLLDTLQNILLPLLLNIGLLALALFGYTTFRHFSSRSTENVPSTAVNNELRILRAINEEIVSLLPLGLLVHDQESNRTVISNKIADHLLPHLNLQNITTMAEQHQGIIQATINNELYEIRMFRSQVAPRTQIFIIRDQDREVLVNKKLKQAQRLYEKNQQGRMIFMKNIGDALKEPAQSLAESAAKLNAPESKQLANQADVLVRLVDEIQLANMLADDSWKSETVLFSVQDLIDEVVPSVLPAIKRKGLQLLINNHLKAHDMRRGDRDALRRILLLLMQYAVTSTQLGKITLEVDQDESSEDRLTFRILDTGEGVSIHEMDNLHFPFINQTQNDRYGKADPLAFWLSDQLARKLGGHLNIKTRDGLGTRYSVHIKMLAADPEVEEEEERLLDDVCVMVDVTSAEIRNIVTRQLENWGATCITPDERLISQDYDIFLTDNPSNLTASGLLLSDDESGVREIGPGQLCVNFNMSNAMQEAVLQLIEVQLAQEEVTESPLGGDENAQLHASGYYALFVDTVPDDVKRLYTEAATSDFAALAQTAHRLKGVFAMLNLVPGKQLCETLEHLIREKDVPGIEKYISDIDSYVKSLL | 6.226 ± 0.058 | 6.72 ± 0.27 | 6.86 ± 0.49 | 6.32 ± 0.7 | 3.25 ± 0.077 | 6.3 ± 0.57 | 11.13 ± 0.09 | 6.21 ± 0.15 | 12.6 ± 0.92 | 7 ± 0.88 | 12.9 ± 0.27 |  |
| MKNVGDLMQRLQKMMPAHIKPAFKTGEELLAWQKEQGAIRSAALERENRAMKMQRTFNRSGIRPLHQNCSFENYRVECEGQMNALSKARQYVEEFDGNIASFIFSGKPGTGKNHLAAAICNELLLRGKSVLIITVADIMSAMKDTFRNSGTSEEQLLNDLSNVDLLVIDEIGVQTESKYEKVIINQIVDRRSSSKRPTGMLTNSNMEEMTKLLGERVMDRMRLGNSLWVIFNWDSYRSRVTGKEY [P0AEF0] | 3.95 ± 0.25 | 2.11 ± 0.34 | 2.64 ± 0.32 | 2.33 ± 0.07 | 2.05 ± 0.26 | 4.67 ± 0.49 | 5.08 ± 0.67 | 2.18 ± 0.26 | 3.42 ± 0.18 | 3.49 ± 0.45 | 7.41 ± 2.5 | 2.75 ± 0.059 |
| MSFWKVAAAQYEPRKTSLTEQVAHHLEFVRAAARQQCQLLVFPSLSLLGCDYSRRALPAPPDLSLLDPLCYAATTWRMTIIAGLPVEYNDRFIRGIAVFAPWRKTPGIYHQSHGACLGRRSRTITVVDEQPQGMDMDPTCSLFTTGQCLGEPDLLASARRLQFFSHQYSIAVLMANARGNSALWDEYGRLIVRADRGSLLLVGQRSSQGWQGDIIPLR | 5.47 |  |  |  |  |  |  |  |  |  |  |  |
| MSRPLLQLALDHSSLEAAQRDVTLLKDSVDIVEAGTILCLNEGLGAVKALREQCPDKIIVADWKVADAGETLAQQAFGAGANWMTIICAAPLATVEKGHAMAQRCGGEIQIELFGNWTLDDARDWHRIGVRQAIYHRGRDAQASGQQWGEADLARMKALSDIGLELSITGGITPADLPLFKDIRVKAFIAGRALAGAANPAQVAGDFHAQIDAIWGGARA | 4.65 | 4.08 ± 0.35 | 4.77 | 4.3 ± 0.38 | 3.07 ± 0.25 | 5.17 ± 0.32 | 9.07 ± 0.79 | 3.93 | 6.66 ± 0.91 | 5.76 | 9.91 ± 0.32 | 4 |
| MARFVVLVIDSFGVGAMKDVTLVRPQDAGANTCGHILSQLPHLQLPTLETLGLINALGYAPGDMQPSDSATWGVAELQHEGGDTFMGHQEILGTRPLPPLRMPFRDVIDRVEQALVSAGWQVERRGDDLQFLWVNQAVAIGDNLEADLGQVYNITANLSVISFDDAIKIGRIVREQVQVGRVITFGGLLTDSQRILDAAESKEGRFIGINAPRSGAYDNGFQVVHMGYGVDEKVQVPQKLYEAGVPTVLVGKVADIVNNPYGVSWQNLVDSQRIMDITLNEFNTHPTAFICTNIQETDLAGHAEDVARYAERLQVVDRNLARLVEAMQPDDCLVVMADHGNDPTIGHSHHTREVVPVLVYQQGMIATQLGVRTTLSDVGATVCEFFRAPPPQNGRSFLSSLRFAGDTL | 4.67 |  |  |  |  |  |  |  |  |  |  |  |
| MAGPVLYQDRAMKQITFAPRNHLLTNTNTWTPDSQWLVFDVRPSGASFTGETIERVNIHTGEVEVIYRASQGAHVGVVTVHPKSEKYVFIHGPENPDETWHYDFHHRRGVIVEGGKMSNLDAMDITAPYTPGVLRGGSHVHVFSPNGERVSFTYNDHVMHELDPALDLRNVGVAAPFGPVNVQKQHPREYSGSHWCVLVSKTTPTPQPGSDEINRAYEEGWVGNHALAFIGDTLSPKGEKVPELFIVELPQDEAGWKAAGDAPLSGTETTLPAPPRGVVQRRLTFTHHRAYPGLVNVPRHWVRCNPQGTQIAFLMRDDNGIVQLWLISPQGGEPRQLTHNKTDIQSAFNWHPSGEWLGFVLDNRIACAHAQSGEVEYLTEHHANSPSADAVVFSPDGQWLAWMEGGQLWITETDR | 5.27 ± 0.21 | 4.97 ± 0.094 | 4.8 ± 0.15 | 4.67 ± 0.09 | 3.17 ± 0.043 | 5.92 ± 0.44 | 11.1 ± 1.4 | 4.8 ± 0.56 | 8.45 ± 0.1 | 6.23 ± 0.21 | 11.3 ± 0.79 | 4.73 ± 0.52 |
| MIPVERRQIILEMVAEKGIVSIAELTDRMNVSHMTIRRDLQKLEQQGAVVLVSGGVQSPGRVAHEPSHQVKTALAMTQKAAIGKLAASLVQPGSCIYLDAGTTTLAIAQHLIHMESLTVVTNDFVIADYLLDNSNCTIIHTGGAVCRENRSCVGEAAATMLRSLMIDQAFISASSWSVRGISTPAEDKVTVKRAIASASRQRVLVCDATKYGQVATWLALPLSEFDQIITDDGLPESASRALVKQDLSLLVAKNE | 5.5397 ± 0.0019 | 4.72 ± 0.089 |  | 4.76 ± 0.23 | 2.62 ± 0.12 | 5.33 ± 0.07 | 8.85 ± 0.59 | 4.82 ± 0.13 | 8.78 ± 0.59 | 4.69 ± 0.52 | 9.046 ± 0.035 | 4.93 ± 0.35 |
